Here are results for one molecule from patent CN110760003A.

The assay has as its target 人HER3胞外区蛋白 (human HER3 extracellular region protein) (human) (UniProt P21860). The assay is described as follows: ELISA; human HER3 extracellular region coated at 2 μg/mL, scFv at 2 μg/mL, detected with HRP anti-6×His Tag antibody, TMB, triplicate wells (mean ± deviation). On the technique in general: ELISA stands for enzyme-linked immunosorbent assay.

B1: 抗HER3单链抗体 (anti-HER3-scFv) (scFv)
scFv: QVQLVESGGGLVQPGGSLRLSCAASGFTFSSYAMSWVRQAPGKGLEWVSAINSQGKSTYYADSVKGRFTISRDNSKNTLYLQMNSLRAEDTAVYYCARWGDEGFDIWGQGTLVTVSSGGGGSGGGGSGGGGSDIQMTQSPSSLSASVGDRVTITCRASQGISNWLAWYQQKPGKAPKLLIYGASSLQSGVPSRFSGSGSGTDFTLTISSLQPEDFAVYYCQQYSSFPTTFGQGTKVEIK
The molecule B1 gave a 吸光度(A450)均值 of 0.961 A450.
